# Columns and labels:
# Saccharomyces cerevisiae [1] = experiment: protein stability index of tFT-peptide fusion in deletion strain of DAS1 (PSI (0-1 scale)); higher = more stable (slower turnover)
# Experimental: (§1)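 MPS profiling in S. cerevisiae of two library types built from selected 12-aa C-degron peptides (IN1, IN2, LN1, LN3, VN2, R1-R5, W1-W3, Atg1 and Rpa12 C-termini): saturation mutagenesis libraries and C-terminal +1 capping libraries (13 aa). Each peptide is fused to the C-terminus of a sfGFP-mCherry timer, after a GGGS linker. Cells are FACS-sorted into 8 mCherry/sfGFP bins and sequenced. PSI runs from 0 (unstable) to 1 (stable), measured once in wild type and in the das1Δ or doa10Δ background.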
# Saccharomyces cerevisiae [2] = experiment: protein stability index of tFT-peptide fusion in wild type (PSI (0-1 scale)); higher = more stable (slower turnover); settings: genetic background: wild type
# Experimental: as §1
# 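Wherever protein stability index of tFT-peptide fusion in deletion strain of DAS1 is given: PSI is a weighted mean of each variant's read distribution over the sorted stability bins, computed only for variants having over 10 reads in total.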
# 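Wherever protein stability index of tFT-peptide fusion in wild type is given: PSI derived as read-weighted mean over the 8 sorting bins, only variants exceeding 10 total reads kept, mCherry placed adjacent to the peptide and sfGFP distal.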
sequence,measurement,setting,value
RLIRPLPVQFLN,protein stability index,Saccharomyces cerevisiae [1],0.593
same,protein stability index,Saccharomyces cerevisiae [2],0.0343
FQMRWTFRYWVN,protein stability index,Saccharomyces cerevisiae [1],0.46
same,protein stability index,Saccharomyces cerevisiae [2],0.0681
PSGAASFWRVVG,protein stability index,Saccharomyces cerevisiae [1],0.668
same,protein stability index,Saccharomyces cerevisiae [2],0.16
RLIQPLPVQYLN,protein stability index,Saccharomyces cerevisiae [1],0.661
same,protein stability index,Saccharomyces cerevisiae [2],0.0462
LKILRQKMNHLN,protein stability index,Saccharomyces cerevisiae [1],0.674
same,protein stability index,Saccharomyces cerevisiae [2],0.192
PDKWNHLIKLLN,protein stability index,Saccharomyces cerevisiae [1],0.576
same,protein stability index,Saccharomyces cerevisiae [2],0.0782
DKHKKGQKQKIN,protein stability index,Saccharomyces cerevisiae [1],0.602
same,protein stability index,Saccharomyces cerevisiae [2],0.113
PSLAASFVRVVG,protein stability index,Saccharomyces cerevisiae [1],0.514
same,protein stability index,Saccharomyces cerevisiae [2],0.528
LEILRQKMNHQN,protein stability index,Saccharomyces cerevisiae [1],0.672
same,protein stability index,Saccharomyces cerevisiae [2],0.161
ARWYVGLWRGAS,protein stability index,Saccharomyces cerevisiae [1],0.696
same,protein stability index,Saccharomyces cerevisiae [2],0.469
LVAYLSCVACIN,protein stability index,Saccharomyces cerevisiae [1],0.156
same,protein stability index,Saccharomyces cerevisiae [2],0.0244
PDKRNHKIKLLN,protein stability index,Saccharomyces cerevisiae [1],0.599
same,protein stability index,Saccharomyces cerevisiae [2],0.086
LVVYLSNVACIN,protein stability index,Saccharomyces cerevisiae [1],0.5
same,protein stability index,Saccharomyces cerevisiae [2],0.344
VRGAVGGWRLPG,protein stability index,Saccharomyces cerevisiae [1],0.681
same,protein stability index,Saccharomyces cerevisiae [2],0.683
FSMRWTFREWVN,protein stability index,Saccharomyces cerevisiae [1],0.57
same,protein stability index,Saccharomyces cerevisiae [2],0.0594
FSMRWTFRYLVN,protein stability index,Saccharomyces cerevisiae [1],0.479
same,protein stability index,Saccharomyces cerevisiae [2],0.0662
CTSCGYKFRTNS,protein stability index,Saccharomyces cerevisiae [1],0.697
same,protein stability index,Saccharomyces cerevisiae [2],0.465
PDKRNHLIKLIN,protein stability index,Saccharomyces cerevisiae [1],0.612
same,protein stability index,Saccharomyces cerevisiae [2],0.115
RLIQPLCVQFLN,protein stability index,Saccharomyces cerevisiae [1],0.605
same,protein stability index,Saccharomyces cerevisiae [2],0.0777
FSMRWEFRYWVN,protein stability index,Saccharomyces cerevisiae [1],0.471
same,protein stability index,Saccharomyces cerevisiae [2],0.0711
RLICPLPVQFLN,protein stability index,Saccharomyces cerevisiae [1],0.562
same,protein stability index,Saccharomyces cerevisiae [2],0.0408
KKHKKGQKQKNN,protein stability index,Saccharomyces cerevisiae [1],0.643
same,protein stability index,Saccharomyces cerevisiae [2],0.476
CTSCGYKFRTKN,protein stability index,Saccharomyces cerevisiae [1],0.702
same,protein stability index,Saccharomyces cerevisiae [2],0.631
VRGAVGGWRLHG,protein stability index,Saccharomyces cerevisiae [1],0.662
same,protein stability index,Saccharomyces cerevisiae [2],0.226
VRGAVGGWRAVG,protein stability index,Saccharomyces cerevisiae [1],0.67
same,protein stability index,Saccharomyces cerevisiae [2],0.365
PSRAASFWRVVG,protein stability index,Saccharomyces cerevisiae [1],0.691
same,protein stability index,Saccharomyces cerevisiae [2],0.149
CTSCGYKFRTIN,protein stability index,Saccharomyces cerevisiae [1],0.698
same,protein stability index,Saccharomyces cerevisiae [2],0.148
LKILRQKMNHTN,protein stability index,Saccharomyces cerevisiae [1],0.672
same,protein stability index,Saccharomyces cerevisiae [2],0.197
LRILRQKMNHQN,protein stability index,Saccharomyces cerevisiae [1],0.666
same,protein stability index,Saccharomyces cerevisiae [2],0.148
PDKKNHLIKLLN,protein stability index,Saccharomyces cerevisiae [1],0.768
same,protein stability index,Saccharomyces cerevisiae [2],0.09
ARWMVGLWRGAS,protein stability index,Saccharomyces cerevisiae [1],0.709
same,protein stability index,Saccharomyces cerevisiae [2],0.449
PSLAASFWRVVP,protein stability index,Saccharomyces cerevisiae [1],0.688
same,protein stability index,Saccharomyces cerevisiae [2],0.539
PSLAASFWRAVG,protein stability index,Saccharomyces cerevisiae [1],0.699
same,protein stability index,Saccharomyces cerevisiae [2],0.158
PSWAASFWRVVG,protein stability index,Saccharomyces cerevisiae [1],0.714
same,protein stability index,Saccharomyces cerevisiae [2],0.154
PSLAASFWRVVGK,protein stability index,Saccharomyces cerevisiae [1],0.689
same,protein stability index,Saccharomyces cerevisiae [2],0.666
CTSCGYAFRTNN,protein stability index,Saccharomyces cerevisiae [1],0.697
same,protein stability index,Saccharomyces cerevisiae [2],0.226
RLIQPLPVQFLD,protein stability index,Saccharomyces cerevisiae [1],0.573
same,protein stability index,Saccharomyces cerevisiae [2],0.633
PSLPASFWRVVG,protein stability index,Saccharomyces cerevisiae [1],0.685
same,protein stability index,Saccharomyces cerevisiae [2],0.197
LKPLRQKMNHQN,protein stability index,Saccharomyces cerevisiae [1],0.682
same,protein stability index,Saccharomyces cerevisiae [2],0.172
PDKRNHLIPLLN,protein stability index,Saccharomyces cerevisiae [1],0.585
same,protein stability index,Saccharomyces cerevisiae [2],0.405
FSMRSTFRYWVN,protein stability index,Saccharomyces cerevisiae [1],0.608
same,protein stability index,Saccharomyces cerevisiae [2],0.096
RLIQPLPVQFCN,protein stability index,Saccharomyces cerevisiae [1],0.681
same,protein stability index,Saccharomyces cerevisiae [2],0.195
LVVYLSCVAYIN,protein stability index,Saccharomyces cerevisiae [1],0.0273
same,protein stability index,Saccharomyces cerevisiae [2],0.0128
PDKRNHVIKLLN,protein stability index,Saccharomyces cerevisiae [1],0.605
same,protein stability index,Saccharomyces cerevisiae [2],0.0941
KKHKKGCKQKIN,protein stability index,Saccharomyces cerevisiae [1],0.598
same,protein stability index,Saccharomyces cerevisiae [2],0.0767
PDKRNHLITLLN,protein stability index,Saccharomyces cerevisiae [1],0.622
same,protein stability index,Saccharomyces cerevisiae [2],0.315
VRIAVGGWRLVG,protein stability index,Saccharomyces cerevisiae [1],0.68
same,protein stability index,Saccharomyces cerevisiae [2],0.11
CTSLGYKFRTNN,protein stability index,Saccharomyces cerevisiae [1],0.689
same,protein stability index,Saccharomyces cerevisiae [2],0.17
LKVYLSCVACIN,protein stability index,Saccharomyces cerevisiae [1],0.14
same,protein stability index,Saccharomyces cerevisiae [2],0.0444
FSMRWTNRYWVN,protein stability index,Saccharomyces cerevisiae [1],0.592
same,protein stability index,Saccharomyces cerevisiae [2],0.0731
GTSCGYKFRTNN,protein stability index,Saccharomyces cerevisiae [1],0.659
same,protein stability index,Saccharomyces cerevisiae [2],0.261
KPHKKGQKQKIN,protein stability index,Saccharomyces cerevisiae [1],0.625
same,protein stability index,Saccharomyces cerevisiae [2],0.0908
LKILRQKMFHQN,protein stability index,Saccharomyces cerevisiae [1],0.654
same,protein stability index,Saccharomyces cerevisiae [2],0.206
LVVYLSCVACIG,protein stability index,Saccharomyces cerevisiae [1],0.0316
same,protein stability index,Saccharomyces cerevisiae [2],0.0178
FSKRWTFRYWVN,protein stability index,Saccharomyces cerevisiae [1],0.596
same,protein stability index,Saccharomyces cerevisiae [2],0.0512
PDKRNHWIKLLN,protein stability index,Saccharomyces cerevisiae [1],0.567
same,protein stability index,Saccharomyces cerevisiae [2],0.196
CCSCGYKFRTNN,protein stability index,Saccharomyces cerevisiae [1],0.681
same,protein stability index,Saccharomyces cerevisiae [2],0.226
ARWRVGLWSGAS,protein stability index,Saccharomyces cerevisiae [1],0.693
same,protein stability index,Saccharomyces cerevisiae [2],0.67
VRGAVGWWRLVG,protein stability index,Saccharomyces cerevisiae [1],0.665
same,protein stability index,Saccharomyces cerevisiae [2],0.163
PSLFASFWRVVG,protein stability index,Saccharomyces cerevisiae [1],0.694
same,protein stability index,Saccharomyces cerevisiae [2],0.109
YRGAVGGWRLVG,protein stability index,Saccharomyces cerevisiae [1],0.664
same,protein stability index,Saccharomyces cerevisiae [2],0.218
KKTKKGQKQKIN,protein stability index,Saccharomyces cerevisiae [1],0.583
same,protein stability index,Saccharomyces cerevisiae [2],0.113
FSMRWNFRYWVN,protein stability index,Saccharomyces cerevisiae [1],0.536
same,protein stability index,Saccharomyces cerevisiae [2],0.0584
CTSCGYKFRTND,protein stability index,Saccharomyces cerevisiae [1],0.695
same,protein stability index,Saccharomyces cerevisiae [2],0.7
ARWRVGLERGAS,protein stability index,Saccharomyces cerevisiae [1],0.7
same,protein stability index,Saccharomyces cerevisiae [2],0.661
PSLAASFWRVLG,protein stability index,Saccharomyces cerevisiae [1],0.68
same,protein stability index,Saccharomyces cerevisiae [2],0.164
PDKRNHLIMLLN,protein stability index,Saccharomyces cerevisiae [1],0.624
same,protein stability index,Saccharomyces cerevisiae [2],0.193
KKHKKTQKQKIN,protein stability index,Saccharomyces cerevisiae [1],0.677
same,protein stability index,Saccharomyces cerevisiae [2],0.0737
LFVYLSCVACIN,protein stability index,Saccharomyces cerevisiae [1],0.0251
same,protein stability index,Saccharomyces cerevisiae [2],0.0334
LVVYLSCVECIN,protein stability index,Saccharomyces cerevisiae [1],0.262
same,protein stability index,Saccharomyces cerevisiae [2],0.125
KKHKVGQKQKIN,protein stability index,Saccharomyces cerevisiae [1],0.567
same,protein stability index,Saccharomyces cerevisiae [2],0.0595
PSLAASFERVVG,protein stability index,Saccharomyces cerevisiae [1],0.675
same,protein stability index,Saccharomyces cerevisiae [2],0.655
LVVYLSCVACINM,protein stability index,Saccharomyces cerevisiae [1],0.206
same,protein stability index,Saccharomyces cerevisiae [2],0.183
PSLAASFWGVVG,protein stability index,Saccharomyces cerevisiae [1],0.715
same,protein stability index,Saccharomyces cerevisiae [2],0.697
RLIQNLPVQFLN,protein stability index,Saccharomyces cerevisiae [1],0.57
same,protein stability index,Saccharomyces cerevisiae [2],0.029
FSMRWTFHYWVN,protein stability index,Saccharomyces cerevisiae [1],0.456
same,protein stability index,Saccharomyces cerevisiae [2],0.048
CTSCGYKFRTNN,protein stability index,Saccharomyces cerevisiae [1],0.691
same,protein stability index,Saccharomyces cerevisiae [2],0.247
RLIQQLPVQFLN,protein stability index,Saccharomyces cerevisiae [1],0.602
same,protein stability index,Saccharomyces cerevisiae [2],0.0315
KKHKKGDKQKIN,protein stability index,Saccharomyces cerevisiae [1],0.599
same,protein stability index,Saccharomyces cerevisiae [2],0.137
LKELRQKMNHQN,protein stability index,Saccharomyces cerevisiae [1],0.673
same,protein stability index,Saccharomyces cerevisiae [2],0.217
LKILRQKFNHQN,protein stability index,Saccharomyces cerevisiae [1],0.668
same,protein stability index,Saccharomyces cerevisiae [2],0.202
LKILRQKMNHKN,protein stability index,Saccharomyces cerevisiae [1],0.678
same,protein stability index,Saccharomyces cerevisiae [2],0.484
PSLAASFWRVCG,protein stability index,Saccharomyces cerevisiae [1],0.659
same,protein stability index,Saccharomyces cerevisiae [2],0.163
FSMEWTFRYWVN,protein stability index,Saccharomyces cerevisiae [1],0.425
same,protein stability index,Saccharomyces cerevisiae [2],0.112
CTSDGYKFRTNN,protein stability index,Saccharomyces cerevisiae [1],0.669
same,protein stability index,Saccharomyces cerevisiae [2],0.517
VRGAGGGWRLVG,protein stability index,Saccharomyces cerevisiae [1],0.663
same,protein stability index,Saccharomyces cerevisiae [2],0.209
LKILRQKMQHQN,protein stability index,Saccharomyces cerevisiae [1],0.716
same,protein stability index,Saccharomyces cerevisiae [2],0.238
FSMRWTFWYWVN,protein stability index,Saccharomyces cerevisiae [1],0.416
same,protein stability index,Saccharomyces cerevisiae [2],0.0405
ARWRVGLWRFAS,protein stability index,Saccharomyces cerevisiae [1],0.675
same,protein stability index,Saccharomyces cerevisiae [2],0.101

# From the supplement of paper PMC10724198
